One test concerns the target T1, Mcl-1, Q07820.
T1 chain: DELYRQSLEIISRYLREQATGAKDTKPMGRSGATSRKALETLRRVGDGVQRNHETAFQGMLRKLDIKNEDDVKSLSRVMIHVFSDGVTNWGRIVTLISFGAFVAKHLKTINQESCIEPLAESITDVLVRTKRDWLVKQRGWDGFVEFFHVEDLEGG
The test is described as follows: peptide SPOT array, c-Myc-tagged receptor at 1 uM or 100 nM, anti-c-Myc-Cy3.

A further test has as its target Bcl-xL, Q07817. The description is as above.

Bcl-xL, Q07817, sequence (Q07817 1-209): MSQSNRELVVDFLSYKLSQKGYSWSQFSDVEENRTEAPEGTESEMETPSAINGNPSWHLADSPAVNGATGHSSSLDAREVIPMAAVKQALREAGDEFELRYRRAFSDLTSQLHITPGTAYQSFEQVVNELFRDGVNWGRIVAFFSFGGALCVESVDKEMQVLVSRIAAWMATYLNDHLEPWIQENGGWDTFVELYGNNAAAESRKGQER

B1: CLTC (peptide)
chain: FRLAQMCGLHIVVHLDELEELINYYQ
Take B1: the SPOT signal as a fraction of Bim BH3's signal on the same receptor and array was found to be 0.02 with Mcl-1, Q07820 and 0.02 with Bcl-xL, Q07817.

B2: EXOC5 (peptide)
chain: DEHISYVATKVCHLGDQLEGVNTPRQ
As to B2, the SPOT signal as a fraction of Bim BH3's signal on the same receptor and array in the test with Mcl-1, Q07820 came out at 0.01; in the test with Bcl-xL, Q07817 it was 0.02.

B3: SLC40A1 (peptide)
chain: AKFLLYLGHSDSTWGDRMWHFAVSVF
For B3, the SPOT signal as a fraction of Bim BH3's signal on the same receptor and array in the test with Mcl-1, Q07820 was determined as 0.03; with Bcl-xL, Q07817 it was 0.03.

B4: KPNB1 (peptide)
chain: DHTDGVVACAAGLILDLCTAFGKDVL
For B4, the SPOT signal as a fraction of Bim BH3's signal on the same receptor and array with Mcl-1, Q07820 worked out at 0.02; with Bcl-xL, Q07817, 0.01.

B5: CLTC (peptide)
chain: FRLAQMCGLHIVVHADELEELINYYQ
Take B5: the SPOT signal as a fraction of Bim BH3's signal on the same receptor and array with Mcl-1, Q07820 was 0.02; with Bcl-xL, Q07817 it was 0.02.

B6: NT5C2 (peptide)
chain: CDLLGAKGKDILYIGDHIFGDILKSK
Take B6: the SPOT signal as a fraction of Bim BH3's signal on the same receptor and array with Mcl-1, Q07820 was 0.04; with Bcl-xL, Q07817, 0.04.

B7: TEP1 (peptide)
chain: AALFLHAGCQLLTALEDGKVQVWSGS
On to B7, for which the SPOT signal as a fraction of Bim BH3's signal on the same receptor and array in the test with Mcl-1, Q07820 came out at 0.01; in the test with Bcl-xL, Q07817, 0.02.

B8: TIGD7 (peptide)
chain: VLSRIEAGRSLKSVMDEFGISKSTFY
B8: the SPOT signal as a fraction of Bim BH3's signal on the same receptor and array with Mcl-1, Q07820 was determined as 0.11; with Bcl-xL, Q07817, 0.11.

B9: CCT3 (peptide)
chain: DVGTGAGLLEIKKILDEYFTFITDCK
Take B9: the SPOT signal as a fraction of Bim BH3's signal on the same receptor and array came to 0.02 with Mcl-1, Q07820 and 0.02 in the test with Bcl-xL, Q07817.

B10: TIGD7 (peptide)
chain: VLSRIEAGRSDKSVMDEFGISKSTFY
With B10, the SPOT signal as a fraction of Bim BH3's signal on the same receptor and array in the test with Mcl-1, Q07820 is 0.02; in the test with Bcl-xL, Q07817, 0.02.

B11: CLTCL1 (peptide)
chain: FRFAQLCGLHIVIHLDELEELMCYYQ
For B11, the SPOT signal as a fraction of Bim BH3's signal on the same receptor and array with Mcl-1, Q07820 was 0.03; with Bcl-xL, Q07817, 0.02.

B12: DCAF8 (peptide)
chain: TLHFNQRGTWLASGLDDLKVVVWDWV
Turning to B12, the SPOT signal as a fraction of Bim BH3's signal on the same receptor and array stood at 0.02 with Mcl-1, Q07820 and 0.02 in the test with Bcl-xL, Q07817.

B13: POLQ (peptide)
chain: DLLGMVVVDELHMLLDSHRGYLLELL
For the molecule B13, the SPOT signal as a fraction of Bim BH3's signal on the same receptor and array in the test with Mcl-1, Q07820 was determined as 0.02; in the test with Bcl-xL, Q07817 it was 0.02.

B14: VPS13C (peptide)
chain: SRQPRDFGDSLARGLKGFLRGVVGGV
B14: the SPOT signal as a fraction of Bim BH3's signal on the same receptor and array in the test with Mcl-1, Q07820 worked out at 0.18; with Bcl-xL, Q07817, 0.34.

B15: VCL (peptide)
chain: KRALIQCAKDIAKALDEVTRLAKEVA
Turning to B15, the SPOT signal as a fraction of Bim BH3's signal on the same receptor and array with Mcl-1, Q07820 was 0.05; with Bcl-xL, Q07817, 0.21.

B16: CDC42BPG (peptide)
chain: ELQAPATVQSLGLLGDRLCVGAAGGF
Turning to B16, the SPOT signal as a fraction of Bim BH3's signal on the same receptor and array in the test with Mcl-1, Q07820 came out at 0.01; in the test with Bcl-xL, Q07817, 0.01.

B17: ADCY10 (peptide)
chain: EKVLIFGGDIDKFAGDALLALWRVER
In the case of B17, the SPOT signal as a fraction of Bim BH3's signal on the same receptor and array in the test with Mcl-1, Q07820 is 0.02; with Bcl-xL, Q07817, 0.02.

B18: BAT3 (peptide)
chain: QRLINLVGESDRLLGNTFVALSDLRC
Turning to B18, the SPOT signal as a fraction of Bim BH3's signal on the same receptor and array with Mcl-1, Q07820 turned out to be 0.02; in the test with Bcl-xL, Q07817 it was 0.08.

B19: KPNB1 (peptide)
chain: DHTDGVVACAAGLIGDLCTAFGKDVL
In the case of B19, the SPOT signal as a fraction of Bim BH3's signal on the same receptor and array with Mcl-1, Q07820 was 0.02; with Bcl-xL, Q07817, 0.02.

B20: POLE (peptide)
chain: CILNSFYGYVMRKGLRWYSMEMAGIV
Regarding B20, the SPOT signal as a fraction of Bim BH3's signal on the same receptor and array with Mcl-1, Q07820 came out at 0.24; with Bcl-xL, Q07817 it was 0.29.

B21: CCT3 (peptide)
chain: DVGTGAGLLEDKKIGDEYFTFITDCK
With B21, the SPOT signal as a fraction of Bim BH3's signal on the same receptor and array with Mcl-1, Q07820 worked out at 0.01; in the test with Bcl-xL, Q07817 it was 0.01.

B22: HDLBP (peptide)
chain: RHFVIRRGQVLREILEEYGGVMVSFP
B22: the SPOT signal as a fraction of Bim BH3's signal on the same receptor and array turned out to be 0.05 in the test with Mcl-1, Q07820 and 0.04 with Bcl-xL, Q07817.

B23: DDX7 (peptide)
chain: GLFSATSGVDDKYVADTFGQEVRPVS
As for B23, the SPOT signal as a fraction of Bim BH3's signal on the same receptor and array amounted to 0.01 with Mcl-1, Q07820 and 0.02 in the test with Bcl-xL, Q07817.

B24: RYR1 (peptide)
chain: DLSAVTLSRELQAMAEQLAENYHNTW
B24: the SPOT signal as a fraction of Bim BH3's signal on the same receptor and array with Mcl-1, Q07820 turned out to be 0.02; in the test with Bcl-xL, Q07817 it was 0.02.

B25: CCDC76 (peptide)
chain: KLPVVGIGKHLCGMLTDLALRCLVET
As for B25, the SPOT signal as a fraction of Bim BH3's signal on the same receptor and array with Mcl-1, Q07820 turned out to be 0.03; in the test with Bcl-xL, Q07817, 0.04.

B26: CREBBP (peptide)
chain: TPSRSALSSEDSLVGDTTGDTLEKFV
With B26, the SPOT signal as a fraction of Bim BH3's signal on the same receptor and array was determined as 0.01 with Mcl-1, Q07820 and 0.01 in the test with Bcl-xL, Q07817.

B27: PRPSAP1 (peptide)
chain: ITVVGDVGGRDAIIVDDIIDDVESFV
On to B27, for which the SPOT signal as a fraction of Bim BH3's signal on the same receptor and array is 0.01 with Mcl-1, Q07820 and 0.02 in the test with Bcl-xL, Q07817.

B28: CPS1 (peptide)
chain: LRCEMASTGEDACFGEGIHTAFLKAM
As to B28, the SPOT signal as a fraction of Bim BH3's signal on the same receptor and array is 0.03 with Mcl-1, Q07820 and 0.02 with Bcl-xL, Q07817.

B29: FLAD1 (peptide)
chain: LSPGRSVTAGIIIVGDEILKGHTQDT
B29: the SPOT signal as a fraction of Bim BH3's signal on the same receptor and array was 0.01 with Mcl-1, Q07820 and 0.01 with Bcl-xL, Q07817.

B30: CREBBP (peptide)
chain: TPSRSALSSELSLVLDTTGDTLEKFV
For B30, the SPOT signal as a fraction of Bim BH3's signal on the same receptor and array with Mcl-1, Q07820 is 0.01; with Bcl-xL, Q07817, 0.02.

B31: DBC1 (peptide)
chain: ISDVQVFGYSLRFNLDLLRSAVQQVN
Regarding B31, the SPOT signal as a fraction of Bim BH3's signal on the same receptor and array with Mcl-1, Q07820 turned out to be 0.02; with Bcl-xL, Q07817, 0.03.

B32: OBSCN (peptide)
chain: RCELQICGLAMADALEYLCVCGQERT
As for B32, the SPOT signal as a fraction of Bim BH3's signal on the same receptor and array in the test with Mcl-1, Q07820 was determined as 0.02; with Bcl-xL, Q07817, 0.02.

B33: TBL1XR1 (peptide)
chain: AIKWDPTGNLDASCSDDMTLKIWSMK
For B33, the SPOT signal as a fraction of Bim BH3's signal on the same receptor and array amounted to 0.03 with Mcl-1, Q07820 and 0.03 in the test with Bcl-xL, Q07817.

B34: VCL (peptide)
chain: KRALIQCAKDDAKASDEVTRLAKEVA
Regarding B34, the SPOT signal as a fraction of Bim BH3's signal on the same receptor and array stood at 0.02 with Mcl-1, Q07820 and 0.05 with Bcl-xL, Q07817.

B35: EEF2 (peptide)
chain: GSGLHGWAFTDKQFAEMYVAKFAAKG
Turning to B35, the SPOT signal as a fraction of Bim BH3's signal on the same receptor and array came out at 0.03 with Mcl-1, Q07820 and 0.12 with Bcl-xL, Q07817.

B36: CCDC76 (peptide)
chain: KLPVVGIGKHLCGMATDLALRCLVET
Regarding B36, the SPOT signal as a fraction of Bim BH3's signal on the same receptor and array in the test with Mcl-1, Q07820 amounted to 0.03; in the test with Bcl-xL, Q07817, 0.04.

B37: MSH3 (peptide)
chain: AVLCVECGYKDRFFGEDAEIAARELN
As for B37, the SPOT signal as a fraction of Bim BH3's signal on the same receptor and array with Mcl-1, Q07820 worked out at 0.02; with Bcl-xL, Q07817, 0.02.

Source of the values: paper PMC4072508, “Genome-Wide Prediction and Validation of Peptides That Bind Human Prosurvival Bcl-2 Proteins” (PLoS Computational Biology, 2014).
